Experimental findings from PMC11924951 (The Journal of Experimental Medicine, 2025) are described below.

Holding throughout (settings): both partners purified
The target in one experiment is T1, Fc-tagged IFNα1 (human, UniProt P0DY56).
T1 construct: interferon alpha-1 (IFNα1), human; source: bought: ACROBiosystems (IFA-H5258)
In words: BLI; blocking format: IFN-I preincubated 1 h at room temperature with rontalizumab (1:50), sifalimumab (1:50) or plasma (1:10) in assay buffer with 50% goat serum; His-tagged IFNAR1 or IFNAR2 loaded on Ni-NTA biosensors, blocked in 100% goat serum; association 120 s. For orientation: BLI is a label-free optical method that tracks binding on a fibre tip over time.

The next experiment concerns the target T2, His-tagged IFNAR1 (human, UniProt P17181 28-436).
T2 construct: interferon alpha/beta receptor 1 (IFNAR1), human; Soluble recombinant receptor subunit loaded on Ni-NTA biosensors; source: bought: ACROBiosystems (IF1-H5225)
T2 sequence (looked up): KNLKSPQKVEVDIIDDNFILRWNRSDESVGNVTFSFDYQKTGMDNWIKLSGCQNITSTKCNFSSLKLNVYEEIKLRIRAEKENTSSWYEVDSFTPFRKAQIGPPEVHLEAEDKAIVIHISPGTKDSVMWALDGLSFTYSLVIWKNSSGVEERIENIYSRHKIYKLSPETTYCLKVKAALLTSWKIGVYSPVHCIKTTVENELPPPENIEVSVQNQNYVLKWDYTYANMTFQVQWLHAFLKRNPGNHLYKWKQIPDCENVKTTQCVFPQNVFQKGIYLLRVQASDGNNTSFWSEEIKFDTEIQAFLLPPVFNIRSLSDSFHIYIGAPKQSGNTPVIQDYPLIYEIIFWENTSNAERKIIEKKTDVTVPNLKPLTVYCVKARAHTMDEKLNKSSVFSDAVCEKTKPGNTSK
In words: BLI; His-tagged IFNAR1 (25 nM) or IFNAR2 (100 nM) loaded on Ni-NTA biosensors for 600 s; IFN-I in solution, association 60-120 s, dissociation 120 s; 0.02% Tween-20, 0.1% BSA in 1x PBS, pH 7.4; Octet R2.

The target in another experiment is T3, His-tagged IFNAR2 (human, UniProt P48551 27-243).
T3 construct: interferon alpha/beta receptor 2 (IFNAR2), human; Soluble recombinant receptor subunit loaded on Ni-NTA biosensors; source: bought: ACROBiosystems (IF2-H5224)
T3 sequence (looked up): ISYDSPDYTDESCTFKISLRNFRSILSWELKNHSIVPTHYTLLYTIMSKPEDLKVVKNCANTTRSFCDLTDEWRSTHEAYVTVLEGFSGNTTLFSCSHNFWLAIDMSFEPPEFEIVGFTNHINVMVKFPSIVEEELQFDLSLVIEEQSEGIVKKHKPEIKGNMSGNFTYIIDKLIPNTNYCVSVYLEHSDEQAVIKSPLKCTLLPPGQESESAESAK
Described as above.

B1: sifalimumab (antibody, V domains shown)
VH: QVQLVQSGAEVKKPGASVKVSCKASGYTFTSYSISWVRQAPGQGLEWMGWISVYNGNTNYAQKFQGRVTMTTDTSTSTAYLELRSLRSDDTAVYYCARDPIAAGYWGQGTLVTVSS
VL: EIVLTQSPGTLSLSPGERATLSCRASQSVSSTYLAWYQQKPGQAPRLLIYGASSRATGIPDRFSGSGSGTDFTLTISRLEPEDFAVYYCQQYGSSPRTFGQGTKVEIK
notes: source: bought: Thermo Fisher Scientific (MA5-41904)
For B1, in the experiment with Fc-tagged IFNα1, the binding result is given as “binds”.

B2: Fc-tagged IFNα1 (Fc fusion, human, UniProt P0DY56 24-189, looked up)
chain: CDLPETHSLDNRRTLMLLAQMSRISPSSCLMDRHDFGFPQEEFDGNQFQKAPAISVLHELIQQIFNLFTTKDSSAAWDEDLLDKFCTELYQQLNDLEACVMQEERVGETPLMNADSILAVKKYFRRITLYLTEKKYSPCAWEVVRAEIMRSLSLSTNLQERLRRKE
notes: interferon alpha-1 (IFNα1), human; source: bought: ACROBiosystems (IFA-H5258)
As to B2, the binding result with His-tagged IFNAR1 and in the experiment with His-tagged IFNAR2 was “binds” each time.

B3: rontalizumab (antibody, V domains shown)
VH: EVQLVESGGGLVQPGGSLRLSCATSGYTFTEYIIHWVRQAPGKGLEWVASINPDYDITNYNQRFKGRFTISLDKSKRTAYLQMNSLRAEDTAVYYCASWISDFFDYWGQGTLVTVSS
VL: DIQMTQSPSSLSASVGDRVTITCRASQSVSTSSYSYMHWYQQKPGKAPKVLISYASNLESGVPSRFSGSGSGTDFTLTISSLQPEDFATYYCQHSWGIPRTFGQGTKVEIK
notes: source: bought: Thermo Fisher Scientific (MA5-41908)
B3: in the experiment with Fc-tagged IFNα1, the binding result is “binds”.
